Laboratory results taken from patent US11912781B2, “Humanized complement 5A receptor 1 antibodies and methods of use thereof” (VISTERRA, INC., priority 2021, dated 2024).

Assays:
C5aR1 [1] = target: T1, C5aR1 (Homo sapiens, UniProt P21730); assay: GeneBLAzer assay, inhibition of Gα signaling; type: cell-based
T1 sequence (P21730 1-350): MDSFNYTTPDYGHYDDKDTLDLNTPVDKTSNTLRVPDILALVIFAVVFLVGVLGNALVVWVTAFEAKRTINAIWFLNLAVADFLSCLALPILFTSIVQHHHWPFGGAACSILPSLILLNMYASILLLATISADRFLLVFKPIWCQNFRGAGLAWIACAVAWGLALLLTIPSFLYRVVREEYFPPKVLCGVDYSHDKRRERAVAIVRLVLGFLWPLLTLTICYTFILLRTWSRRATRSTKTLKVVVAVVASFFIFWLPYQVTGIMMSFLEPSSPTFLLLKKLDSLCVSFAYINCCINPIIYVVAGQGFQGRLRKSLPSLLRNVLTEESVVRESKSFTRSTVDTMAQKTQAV
Protocol: The GeneBLAzer assay kit and C5aR1 cell line were commercially available from Thermo Fisher (Catalog #K1544). The assay was performed as recommend by the manufacturer. Briefly, antibodies or antagonists were incubated for 30 minutes at increasing concentrations at 37° C. C5a was then added to the cells and incubated at 37° C. for an additional 4-5 hours. Beta-lactamase substrate was then added and incubated for 2 hours at room temperature. Fluorescent measurements for each well with an excitation/emission of 409/460 (blue) and 409/530 (green) were measured. An increase in the blue to green ratio was proportional to C5aR1 activation and was used to calculate the percent of activation for the cells in each well. The C5aR1 activation profile was monitored under increasing antagonist concentration. The IC50 was determined by plotting the percentage of signal against concentration of the antagonist.
This experiment was done as detailed in Example 2.

CD11b = assay: Inhibition of CD11b expression in neutrophils; type: cell-based, human; settings: range of C5a concentrations
Excerpt: CD11b, an integrin receptor, is mobilized to the surface of neutrophils in response to C5a activation and mediates intravascular crawling prior to neutrophil transmigration. CD11 is involved in numerous adhesion-related associations between cells such as monocytes, macrophages, natural killer (NK) cells, and granulocytes.
The experimental details of this determining CD11 expression are described in Example 5.

squirrel monkeys = assay: C5a-induced neutropenia in squirrel monkeys; type: in vivo, squirrel monkey; settings: antibody 10 mg/kg or avacopan 30 mg/kg IV 1 h before 0.1 mg/kg human C5a, 1 min post-C5a
Protocol: Briefly, three groups of squirrel monkeys were evaluated for inhibition of neutropenia. In the first group, 8 squirrel monkeys were injected with PBS (vehicle), intravenously. In the second group 8 squirrel monkeys were injected with exemplary antibodies at a dose of 10 mg/kg, intravenously. In the third group, group 8 squirrel monkeys were injected with avacopan at a dose of 30 mg/kg, intravenously. One hour after injection of the PBS, exemplary antibodies or avacopan, 0.1 mg/kg of human C5a was injected into the squirrel monkeys. The blood was collected after 1 min, 5 min 15 min, 2 hr and 6 hr after injection of human C5a. The percent change in neutrophils and average change in neutrophils were calculated in all three groups and are shown in FIG. 14B, as scatter plot.

C5aR1 [2] = target: T1, C5aR1; assay: β-arrestin2 recruitment, two-subunit luciferase reporter; type: cell-based; parameters: expressed in transfected cells
Excerpt: The β-arrestin assay utilized a proprietary two-subunit luciferase reporter system: one subunit is fused to C5aR1 and one subunit is fused to β-arrestin2. When in close proximity, the two subunits formed an enzyme that generates a luminescent signal, used as a proxy for C5aR1-mediated recruitment of β-arrestin2.
The experimental details of this determining β-arrestin recruitment are described in Example 6. […] Table 14 summarizes the […] of inhibition of β-arrestin recruitment.

tMCAO mice = assay: tMCAO stroke mouse model, infarct volume; type: in vivo; settings: antibodies 20 mg/kg, PMX53 1 mg/kg
Protocol: 1 mg/kg PMX53 was used as a control. The brain was resected, cut into slices and stained with TTC. The stained cross sections were analyzed by imaging.

U937-C5aR1 cells = assay: Binding to U937-C5aR1 cells; settings: two antibody preparations
human neutrophils = assay: Binding to human neutrophils; settings: two antibody preparations
[3] = Pharmacokinetics in Tg32 mice; type: in vivo, mouse; settings: 5 mg/kg IV
Protocol: (§1) 5 mg/kg of exemplary monospecific and biparatopic antibodies were injected intravenously into Tg32 mice. The amount of the antibody in the serum was evaluated over a period of 500 hours. […] FIG. 16B-16D show the stability of the anti-C5aR1 antibodies in the serum of 5 different mice for 500 hours. […] The tetravalent antibodies have slightly lower persistence in serum as compared to the monospecific antibody. Motavizumab was used as a control.
Tg32 mice are a transgenic model in which human FcRn replaces native mouse FcRn. FcRn is necessary for the bidirectional transport of Abs across cellular barriers, influencing PK. Tg32 mice with human FcRn have been extensively studied and thought to correlate with PK in humans. The goal of this experiment was to assess FcRn-mediated recycling of IgG-scFv vs IgG formats and assess any impact of introducing Fc domain modifications on FcRn mediated recycling.
5 mg/kg of exemplary monospecific and biparatopic antibodies were injected intravenously into Tg32 mice. The percentage of antibody in the serum was determined using art-recognized assays. MVZ-IgG4-VFc17, a motavizumab antibody with IgG4 Fc and same Fc modifications as the C5aR1 antibodies, was used as a control. Further PK/PD analyses were carried out using CERTARA.

[4] = Pharmacokinetics in human C5aR1 knock-in mice; type: in vivo, mouse; settings: hC5aR1 mice, 20 mg/kg
Protocol: as §1
Target-Mediated Drug Disposition (TMDD) is evident for both exemplary C5aR1 antibodies with modified Fc domains. TMDD is the phenomenon in which a drug binds with high affinity to its pharmacological target site (such as a receptor) to such an extent that this affects its pharmacokinetic (PK) characteristics. The target binding and subsequent elimination of the drug-target complexes could affect both drug distribution and elimination, and result in nonlinearity of PK in a dose-dependent manner.
The target binding and subsequent elimination of the drug-target complexes could affect both drug distribution and elimination, and result in nonlinearity of PK in a dose-dependent manner. FIG. 30A-30F show antibody persistence was dose-dependent. […] FIG. 30F is in silico graphical representation of isotype control antibody over a period of 500 hours at a concentration of 20 mg/Kg. Non-naïve mice were administered multiple dosing of the mAbs once weekly over 4 total weeks.

C5aR1 [5] = target: T1, C5aR1; assay: Binding kinetics and internalization with or without sodium azide; settings: with or without 20 mM sodium azide
Protocol: The Example seeks to verify that the internalization of the C5aR1 antibodies is specific and not due to non-specific clustering of the membrane immunoglobulin. Sodium azide is a metabolic inhibitor, and inhibits internalization or endocytosis as these are energy dependent processes. Any metabolic dependency on the internalization of exemplary C5aR1 antibodies were probed using 10 nM C5aR1 antibodies in the presence or absence of 20 mM sodium azide.

## Cc1ccc(NC(=O)[C@H]2CCCN(C(=O)c3c(C)cccc3F)[C@H]2c2ccc(NC3CCCC3)cc2)cc1C(F)(F)F [Avacopan]
C5aR1 [1]; read-out: IC50 (nM) 10 nM C5a, Gα signaling, 10 nM C5a, Table 13
  IC50: 2.2 nM
C5aR1 [1]; read-out: IC50 (nM) 100 nM C5a, Gα signaling, extrapolated data, 100 nM C5a, Table 13, extrapolated
  IC50: 0.7 nM
CD11b
  inhibition of CD11b expression: only partially potent
Squirrel monkeys
  average reduction in neutrophil counts from baseline: 59%
C5aR1 [2]; 10 nM C5a, Table 9, read-out: IC50 for β-arrestin signaling
  IC50: 9.95 nM
C5aR1 [2]; 100 nM C5a, Table 9, read-out: IC50 for β-arrestin signaling
  IC50: 3.25 nM
C5aR1 [2]; C5a concentrations increase to 10 nM
  potency in β-arrestin2 recruitment as C5a increases: lost potency
C5aR1 [2]; read-out: IC50 (nM) at 100 nM C5a, beta-arrestin inhibition, 100 nM C5a, Table 14
  IC50: 34 nM

## PMX53 [reference compound]
tMCAO mice
  infarct volume compared to the vehicle group: only slightly reduced infarct volume

## motavizumab [reference compound]
U937-C5aR1 cells
  EC50 of U937-C5aR1 binding: No Binding
Human neutrophils
  EC50 of human neutrophil binding: No Binding

B1: Isotype CTL: a motavizumab antibody with IgG4 Fc and same Fc modifications as the C5aR1 antibodies, used as a control (antibody, chains of the INN, looked up, V domains shown)
VH: QVTLRESGPALVKPTQTLTLTCTFSGFSLSTAGMSVGWIRQPPGKALEWLADIWWDDKKHYNPSLKDRLTISKDTSKNQVVLKVTNMDPADTATYYCARDMIFNFYFDVWGQGTTVTVSS
VL: DIQMTQSPSTLSASVGDRVTITCSASSRVGYMHWYQQKPGKAPKLLIYDTSKLASGVPSRFSGSGSGTEFTLTISSLQPDDFATYYCFQGSGYPFTFGGGTKVEIK
modifications: IgG4 Fc modifications
notes: a motavizumab antibody with IgG4 Fc and same Fc modifications as the C5aR1 antibodies, used as a control
[3]; GeoMean
  AUC0-24: 1620 µg·h/mL
  AUCinf: 16900 µg·h/mL
  AUClast: 13100 µg·h/mL
  CL: 7.08 mL/day/kg
  Cmax: 131 µg/mL
  V: 0.104 L/kg
[3]; Median
  t1/2: 259 h
  tlast: 504 h
[4]; GeoMean
  AUC0-24: 7130 µg·h/mL
  AUCinf: 66200 µg·h/mL
  AUClast: 55800 µg·h/mL
  CL: 7.25 mL/day/kg
  Cmax: 453 µg/mL
  V: 0.06 L/kg
[4]; Median
  t1/2: 127 h
  tlast: 504 h

B2: c2139-e1711: biparatopic anti-C5aR1 antibody, VH1 SEQ ID NO: 14, VL1 SEQ ID NO: 25, VH2 SEQ ID NO: 16, VL2 SEQ ID NO: 17 (antibody, V domains shown)
VH 1: QVQLVQSGAEVKKPGASVKVSCKASGYTFTNYWMHWVRQAPGQGLEWMGYLNPSSGYTKYAQKFQGRVTMTRDTSTSTVYMELSSLRSEDTAVYYCTRSGGDNYGNPYYFDRWGQGTTVTVSS
VL 1: DVQMTQSPSSLSASVGDRVTITCRASQSIVHSNGNTYLHWYQQKPGKAPKFLIYKVSNRFSGVPSRFSGSGSGTDFTLTISSLQPEDFATYYCAQYTLVPLTFGQGTKLEIK
VH 2: EVQLVESGGGLIQPGGSLRLSCAASGFTFNAYAMSWVRQAPGKCLEWVSSISTGGNTYYADSVKGRFTISRDNSKNTLYLQMNSLRAEDTAVYYCTRGYQRFSGFAYWGQGTLVTVSS
VL 2: EIVLTQSPATLSLSPGERATLSCRSSQSLVHSNGNTYLNWYQQKPGQAPRLLIYKVSNRLSGIPARFSGSGSGTDFTLTISSLEPEDFAVYYCSQSTHVPYTFGCGTKLEIK
C5aR1 [5]
  internalization: undergoes internalization during association
